# Assay results from the FLAb antibody collection.
# Numbering of substitutions follows the chain as printed.
# B1: unnamed (protein)
# chain 1: EVQLVESGGGLVEPGGSLRLSCAVSGFDFEKAWMSWVRQAPGQGLQWVARIKSTADGGTTSYAAPVEGRFIISRDDSRNMLYLQMNSLKTEDTAVYYCTSAHWGQGTLVTVSS
# chain 2: SYELTQPPSVSVSPGQTARITCSGEALPMQFAHWYQQRPGKAPVIVVYKDSERPSGVPERFSGSSSGTTATLTITGVQAEDEADYYCQSPDSTNTYEVFGGGTKLTVL
# B2: unnamed (protein)
# chain 1: EVTLRESGPGLVKPTQTLTLTCTLYGFSLSTSDMGVDWIRQPPGKGLEWLAHIWWDDVKRYNPALKSRLTISKDTSKNQVVLKLTSVDPVDTATYYCARTVSSGYIYYAMDYWGQGTLVTVSS
# chain 2: DIQMTQSPSSLSASVGDRVTISCRASQDIRNYLNWYQQKPGKAPKLLIFYTSKLHSGVPSRFSGSGSGTDYTLTISSLQPEDIATYYCQQGNTLPLTFGGGTKVEIK
# B3: unnamed (protein)
# chain 1: EVQLQQSGAELVKPGASVKLSCTASGFNIKDTYVHWVKQRPEQGLEWIGRIDPANGYTKYDPKFQGKATITADTSSNTAYLQLSSLTSEDTAVYYCVRPLYDYYAMDYWGQGTSVTVSS
# chain 2: DILMTQSPSSMSVSLGDTVSITCHASQGISSNIGWLQQKPGKSFMGLIYYGTNLVDGVPSRFSGSGSGADYSLTISSLDSEDFADYYCVQYAQLPYTFGGGTKLEIK
# B4: unnamed (protein)
# chain 1: EVQLVESGGGLVQPGGSLRLSCAASGYTFTNYGMNWVRQAPGKGLEWVGWINTYTGEPTYAADFKRRFTFSLDTSKSTAYLQMNSLRAEDTAVYYCAKYPHYYGSSHWYFDVWGQGTLVTVSS
# chain 2: DIQMTQSPSSLSASVGDRVTITCSASQDISNYLNWYQQKPGKAPKVLIYFTSSLHSGVPSRFSGSGSGTDFTLTISSLQPEDFATYYCQQYSTVPWTFGQGTKVEIK
# B5: unnamed (protein)
# chain 1: QVQLQQSGAELVRPGSSVKISCKASGYAFSSYWMNWVKQRPGQGLEWIGQIWPGDGDTNYNGKFKGKATLTADESSSTAYMQLSSLASEDSAVYFCARRETTTVGRYYYAMDYWGQGTTVTVSS
# chain 2: DIQLTQSPASLAVSLGQRATISCKASQSVDYDGDSYLNWYQQIPGQPPKLLIYDASNLVSGIPPRFSGSGSGTDFTLNIHPVEKVDAATYHCQQSTEDPWTFGGGTKLEIK
# B6: unnamed (protein)
# chain 1: QVQLVQSGAEVKKPGASVKVSCKASGYTFTSYYMHWVRQAPGQGLEWMGEISPFGGRTNYNEKFKSRVTMTRDTSTSTVYMELSSLRSEDTAVYYCARERPLYASDLWGQGTTVTVSS
# chain 2: DIQMTQSPSSLSASVGDRVTITCRASQGISSALAWYQQKPGKAPKLLIYSASYRYTGVPSRFSGSGSGTDFTFTISSLQPEDIATYYCQQRYSLWRTFGQGTKLEIK
# B7: unnamed (protein)
# chain 1: QLQLQESGPGLLKPSETLSLTCTVSGGSISSPGYYGGWIRQPPGKGLEWIGSIYKSGSTYHNPSLKSRVTISVDTSKNQFSLKLSSVTAADTAVYYCTRPVVRYFGWFDPWGQGTLVTVSS
# chain 2: AIQLTQSPSSLSASVGDRVTITCRASQGISSALAWYQQKPGKAPKLLIYDASNLESGVPSRFSGSGSGTDFTLTISSLQPEDFATYYCQQFNSYPTFGQGTKVEIK
# B8: unnamed (protein)
# chain 1: QVQLVQSGAEVKKPGASVKVSCKASGYTFTNHYMHWVRQAPGQGLEWMGIINPISGSTSNAQKFQGRVTMTRDTSTSTVYMELSSLRSEDTAVYYCARDIVDAFDFWGQGTMVTVSS
# chain 2: B7 chain 2 with A34V, N53S, S93D, P95F, Q99P, E104D
# B9: unnamed (protein)
# chain 1: EVQLVESGGGLVQPGGSLRLSCAASGFTFSDYNMAWVRQAPGKGLEWVATITYEGRNTYYRDSVKGRFTISRDNAKNSLYLQMNSLRAEDTAVYYCASPPQYYEGSIYRLWFAHWGQGTLVTVSS
# chain 2: AIQLTQSPSSLSASVGDRVTITCRADESVRTLMHWYQQKPGKAPKLLIYLVSNSEIGVPDRFSGSGSGTDFRLTISSLQPEDFATYYCQQTWSDPWTFGQGTKVEIK
# B10: unnamed (protein)
# chain 1: QVQLVQSGAEVKKPGASVKVSCKASGYTFTRYGISWVRQAPGQGLEWMGWISTYSGNTNYAQKLQGRVTMTTDTSTSTAYMELRSLRSDDTAVYYCARRQLYFDYWGQGTLVTVSS
# chain 2: EIVMTQSPATLSVSPGERATLSCRASQSVSSNLAWFQQKPGQAPRPLIYDASTRATGVPARFSGSGSGTDFTLTISSLQSEDFAVYYCQQYDNWPLTFGGGTKVEIK
# B11: unnamed (protein)
# chain 1: EVQLQQSGPELVKPGASVKMSCKASGYTFTSYVVHWVKQNPGQGLEWIGYINPFNDGTKYNENFKGKATLTSDRSSSTAYMELSSLTSEESAVYFCARDMGREGFAYWGQGTLVTVSA
# chain 2: DIVMTQAAFSNPVTLGTSASISCRSSKSLLHSNGITYLYWYLQKPGQSPQLLIYQMSNLASGVPDRFSSSGSGTDFTLRISRVEAEDVGVYYCAQNLELPRTFGGGTKLEI
# B12: unnamed (protein)
# chain 1: EVQLLESGGVLVQPGGSLRLSCAASGFTFSNFGMTWVRQAPGKGLEWVSGISGGGRDTYFADSVKGRFTISRDNSKNTLYLQMNSLKGEDTAVYYCVKWGNIYFDYWGQGTLVTVSS
# chain 2: DIQMTQSPSSLSASVGDSITITCRASLSINTFLNWYQQKPGKAPNLLIYAASSLHGGVPSRFSGSGSGTDFTLTIRTLQPEDFATYYCQQSSNTPFTFGPGTVVDFR
# B13: unnamed (protein)
# chain 1: EVQLVESGGGLVQPGGSLRLSCAASGYVFTDYGMNWVRQAPGKGLEWMGWINTYIGEPIYADSVKGRFTFSLDTSKSTAYLQMNSLRAEDTAVYYCARGYRSYAMDYWGQGTLVTVSS
# chain 2: DIQMTQSPSSLSASVGDRVTITCKASQNVGTNVAWYQQKPGKAPKALIYSASFLYSGVPYRFSGSGSGTDFTLTISSLQPEDFATYYCQQYNIYPLTFGQGTKVEIK
# B14: unnamed (protein)
# chain 1: ELQLQESGPGLVKPSETLSLTCTVSGGSISSGSYYWDWIRQPPGKGLEWIGNIYKSGSTYYNPSLKSRVTISVDTSKNQFSLKLSSVTAADTAVYYCARERGMHYMDVWGKGTTVTVSS
# chain 2: DIQMTQSPSSLSASVGDRVTITCRASQSINSYLNWYQQKPGKAPKLLIYAASSLQSGVPSRFSGSGSGTDFTLTISSLQPEDFATYYCQQQFDPPFTFGGGTKVEIK
# B15: unnamed (protein)
# chain 1: QVQLVESGGGVVQPGRSLRLSCAASGFTFSVYGMNWVRQAPGKGLEWVAIIWYDGDNQYYADSVKGRFTISRDNSKNTLYLQMNGLRAEDTAVYYCARDLRTGPFDYWGQGTLVTVSS
# chain 2: EIVLTQSPDFQSVTPKEKVTITCRASQSIGSSLHWYQQKPDQSPKLLIKYASQSFSGVPSRFSGSGSGTDFTLTINSLEAEDAAAYYCHQSSSLPFTFGPGTKVDIK
# B16: unnamed (protein)
# chain 1: QIQLQQSGPEVVKPGASVKISCKASGYTFTDYYITWVKQKPGQGLEWIGWIYPGSGNTKYNEKFKGKATLTVDTSSSTAFMQLSSLTSEDTAVYFCANYGNYWFAYWGQGTQVTVSA
# chain 2: DIVLTQSPASLAVSLGQRATISCKASQSVDFDGDSYMNWYQQKPGQPPKVLIYAASNLESGIPARFSGSGSGTDFTLNIHPVEEEDAATYYCQQSNEDPWTFGGGTKLEIK
# B17: unnamed (protein)
# chain 1: EVQLVESGGGLVQPGGSLRLSCAASGFTFNTYAMYWIRQAPGKGLEWVARIRSKSNNYAIYYADSVKDRFTISRDDSKNSLYLQMNSLKTEDTAVYYCARPYSDSFAYWGQGTLVTVSS
# chain 2: DVVMTQSPLSLPVTPGEPASISCRSSQSLVHSTGNTYLHWYLQKPGQSPQLLIYKVSNRFSGVPDRFSGSGSGTDFTLKISRVEAEDVGVYYCSQSTHVPFTFGGGTKVEIK
# B18: unnamed (protein)
# chain 1: QVQLVQSGAEVKKPGASVKVSCKVSGYTLSDLSIHWVRQAPGKGLEWMGGFDPQDGETIYAQKFQGRVTMTEDTSTDTAYMELSSLKSEDTAVYYCATGSSSSWFDPWGQGTLVTVSS
# chain 2: DIQMTQSPSSVSASVGDRVTITCRASQGISSWLAWYQQKPGKAPKLLIYGASNLESGVPSRFSGSGSGTDFTLTISSLQPEDFANYYCQQANSFPWTFGQGTKVEIK
# B19: unnamed (protein)
# chain 1: QVQLVESGGGVVQPGRSLRLSCAASGFTFSSYGMHWVRQAPGKGLEWVAVIWYDGSNEYYADSVKGRFTISRDNSKNTLYLQMNSLRAEDTAVYYCARDRGYTSSWYPDAFDIWGQGTMVTVSS
# chain 2: QSVLTQPPSVSGAPGQRVTISCTGSSSNTGAGYDVHWYQQVPGTAPKLLIYGSGNRPSGVPDRFSGSKSGTSASLAITGLQAEDEADYYCQSYDSSLSGWVFGGGTRLTVL
# Experiment: patients with anti-drug antibodies; higher = more immunogenic
row,Protein,patients with anti-drug antibodies
1,B1,0%
2,B2,3%
3,B3,35.5%
4,B4,0.3%
5,B5,1.4%
6,B6,25.5%
7,B7,2.2%
8,B8,5%
9,B9,12.8%
10,B10,3%
11,B11,100%
12,B12,1.3%
13,B13,8%
14,B14,0%
15,B15,0%
16,B16,35%
17,B17,0%
18,B18,0.4%
19,B19,2.5%
